Measured values as given in patent US20220135684A1 (published 2022).
Read-outs that look alike come from different tables or passages of the source.

Tests used:
cynomolgus PDL1 antigen [1] = biological target: T1, cynomolgus PDL1 antigen (cynomolgus, UniProt G7PSE7 19-238); experiment: SPR (Biacore); EXP2
human CD28 [2] = biological target: T2, human CD28 (human, UniProt P10747 19-152)
cynomolgus PDL1 antigen [3] = biological target: T1, cynomolgus PDL1 antigen; experiment: SPR (Biacore); EXP1
human PDL1 antigen [4] = biological target: T3, human PDL1 antigen (human, UniProt Q9NZQ7 19-238)
human PDL1 antigen [5] = biological target: T3, human PDL1 antigen; experiment: SPR (Biacore); EXP1
human CD28 [6] = biological target: T2, human CD28; experiment: BLI (Octet); average of HIS1K and SA capture
human CD28 [7] = biological target: T2, human CD28; experiment: -; scFv VHVL in 1+1 Fab-scFv-Fc bsAb
human CD28 [8] = biological target: T2, human CD28; experiment: Octet; avid

B1: αPDL1×αCD28 bsAb with PDL1 binding domain 2G4_H1.12_L1.66 and CD28 binding domain 1A7_H1.14_L1.71 (bispecific antibody)
heavy: EVQLLESGGGLVQPGGSLRLSCAASGFTFSVYDMSWVRQAPGKRLEWVSTISSGGSFTHYPDSVKGRFTISRDNSKNTLYLQMNSLRAEDTAVYYCVRRSLDWYFDVWGAGTTVTVSSASTKGPSVFPLAPSSKSTSGGTAALGCLVKDYFPEPVTVSWNSGALTSGVHTFPAVLQSSGLYSLSSVVTVPSSSLGTQTYICNVNHKPSDTKVDKKVEPKSCDKTHTCPPCPAPPVAGPSVFLFPPKPKDTLMISRTPEVTCVVVDVKHEDPEVKFNWYVDGVEVHNAKTKPREEEYNSTYRVVSVLTVLHQDWLNGKEYKCKVSNKALPAPIEKTISKAKGQPREPQVYTLPPSREEMTKNQVSLTCDVSGFYPSDIAVEWESDGQPENNYKTTPPVLDSDGSFFLYSKLTVDKSRWEQGDVFSCSVMHEALHNHYTQKSLSLSPGK
scFv-Fc: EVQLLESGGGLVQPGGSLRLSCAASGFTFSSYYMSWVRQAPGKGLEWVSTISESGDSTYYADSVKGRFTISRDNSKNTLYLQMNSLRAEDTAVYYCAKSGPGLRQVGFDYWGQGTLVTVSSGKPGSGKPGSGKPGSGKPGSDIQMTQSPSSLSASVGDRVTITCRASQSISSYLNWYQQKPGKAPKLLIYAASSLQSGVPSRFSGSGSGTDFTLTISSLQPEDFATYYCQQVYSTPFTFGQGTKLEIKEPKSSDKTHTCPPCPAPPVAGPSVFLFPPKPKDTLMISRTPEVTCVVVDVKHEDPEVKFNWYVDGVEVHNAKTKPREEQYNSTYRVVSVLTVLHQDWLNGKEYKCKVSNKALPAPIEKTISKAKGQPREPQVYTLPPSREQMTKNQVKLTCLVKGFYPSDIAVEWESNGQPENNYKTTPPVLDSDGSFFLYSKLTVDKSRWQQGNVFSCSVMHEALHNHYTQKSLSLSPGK
light: EIVLTQSPGTLSLSPGERATLSCRVSSSIQSTNLHWYQQKPGQSPRPLIYGTSNLATGVPVRFSGSGSGTDYTLTISRLEPEDFAVYYCQQWSSYPLYTFGGGTKVEIKRTVAAPSVFIFPPSDEQLKSGTASVVCLLNNFYPREAKVQWKVDNALQSGNSQESVTEQDSKDSTYSLSSTLTLSKADYEKHKVYACEVTHQGLSSPVTKSFNRGEC
Kd (cynomolgus PDL1 antigen [1]): 1.7 nM

B2: αPDL1×αCD28 bsAb with PDL1 binding domain 2G4_H1.12_L1.68 and CD28 binding domain 1A7_H1.14_L1.71 (bispecific antibody)
heavy: EVQLLESGGGLVQPGGSLRLSCAASGFTFSVYDMSWVRQAPGKRLEWVSTISSGGSFTHYPDSVKGRFTISRDNSKNTLYLQMNSLRAEDTAVYYCVRRSLDWYFDVWGAGTTVTVSSASTKGPSVFPLAPSSKSTSGGTAALGCLVKDYFPEPVTVSWNSGALTSGVHTFPAVLQSSGLYSLSSVVTVPSSSLGTQTYICNVNHKPSDTKVDKKVEPKSCDKTHTCPPCPAPPVAGPSVFLFPPKPKDTLMISRTPEVTCVVVDVKHEDPEVKFNWYVDGVEVHNAKTKPREEEYNSTYRVVSVLTVLHQDWLNGKEYKCKVSNKALPAPIEKTISKAKGQPREPQVYTLPPSREEMTKNQVSLTCDVSGFYPSDIAVEWESDGQPENNYKTTPPVLDSDGSFFLYSKLTVDKSRWEQGDVFSCSVMHEALHNHYTQKSLSLSPGK
scFv-Fc: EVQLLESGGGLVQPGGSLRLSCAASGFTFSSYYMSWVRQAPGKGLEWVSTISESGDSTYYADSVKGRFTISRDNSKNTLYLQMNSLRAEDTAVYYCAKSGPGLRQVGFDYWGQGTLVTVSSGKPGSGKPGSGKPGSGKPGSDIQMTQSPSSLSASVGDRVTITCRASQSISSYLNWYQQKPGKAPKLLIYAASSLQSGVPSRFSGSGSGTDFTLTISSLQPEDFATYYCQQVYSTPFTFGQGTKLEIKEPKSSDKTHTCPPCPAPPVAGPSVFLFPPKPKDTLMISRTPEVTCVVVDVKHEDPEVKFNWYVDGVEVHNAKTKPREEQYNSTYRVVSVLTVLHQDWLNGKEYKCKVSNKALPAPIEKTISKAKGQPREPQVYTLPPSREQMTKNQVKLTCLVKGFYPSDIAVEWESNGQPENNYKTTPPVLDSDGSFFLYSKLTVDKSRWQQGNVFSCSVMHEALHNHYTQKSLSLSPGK
light: EIVLTQSPGTLSLSPGERATLSCRVSSSIQSTNLHWYQQKPGQSPRPLIYGTSNLASGVPVRFSGSGSGTDYTLTISRLEPEDFAVYYCQQWSSYPLYTFGGGTKVEIKRTVAAPSVFIFPPSDEQLKSGTASVVCLLNNFYPREAKVQWKVDNALQSGNSQESVTEQDSKDSTYSLSSTLTLSKADYEKHKVYACEVTHQGLSSPVTKSFNRGEC
Kd (cynomolgus PDL1 antigen [1]): 1.5 nM

B3: XENP38514 (bispecific antibody)
heavy: EVQLLESGGGLVQPGGSLRLSCAASGFTFSVYDMSWVRQAPGKRLEWVSTISSGGSFTHYPDSVKGRFTISRDNSKNTLYLQMNSLRAEDTAVYYCVRRSLDWYFDVWGAGTTVTVSSASTKGPSVFPLAPSSKSTSGGTAALGCLVKDYFPEPVTVSWNSGALTSGVHTFPAVLQSSGLYSLSSVVTVPSSSLGTQTYICNVNHKPSDTKVDKKVEPKSCDKTHTCPPCPAPPVAGPSVFLFPPKPKDTLMISRTPEVTCVVVDVKHEDPEVKFNWYVDGVEVHNAKTKPREEEYNSTYRVVSVLTVLHQDWLNGKEYKCKVSNKALPAPIEKTISKAKGQPREPQVYTLPPSREEMTKNQVSLTCDVSGFYPSDIAVEWESDGQPENNYKTTPPVLDSDGSFFLYSKLTVDKSRWEQGDVFSCSVMHEALHNHYTQKSLSLSPGK
scFv-Fc: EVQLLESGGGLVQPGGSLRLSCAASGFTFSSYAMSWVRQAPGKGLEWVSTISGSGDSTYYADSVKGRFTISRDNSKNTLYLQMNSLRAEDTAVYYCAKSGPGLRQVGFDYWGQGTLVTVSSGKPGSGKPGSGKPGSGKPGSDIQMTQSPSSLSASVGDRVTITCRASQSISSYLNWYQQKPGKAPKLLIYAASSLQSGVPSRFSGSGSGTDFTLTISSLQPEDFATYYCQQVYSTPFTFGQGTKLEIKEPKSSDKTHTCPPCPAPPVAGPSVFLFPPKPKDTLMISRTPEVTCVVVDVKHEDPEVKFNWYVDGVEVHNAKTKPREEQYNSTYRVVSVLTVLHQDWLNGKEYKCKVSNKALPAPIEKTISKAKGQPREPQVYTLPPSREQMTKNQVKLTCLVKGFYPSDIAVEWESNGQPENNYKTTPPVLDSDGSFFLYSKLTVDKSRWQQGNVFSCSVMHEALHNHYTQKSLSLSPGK
light: EIVLTQSPGTLSLSPGERATLSCRVSSSIQSTNLHWYQQKPGQSPRPLIYGTSVLATGVPVRFSGSGSGTDYTLTISRLEPEDFAVYYCQQWSSYPLYTFGGGTKVEIKRTVAAPSVFIFPPSDEQLKSGTASVVCLLNNFYPREAKVQWKVDNALQSGNSQESVTEQDSKDSTYSLSSTLTLSKADYEKHKVYACEVTHQGLSSPVTKSFNRGEC
Kd (human CD28 [2]): 180 nM | Kd (cynomolgus PDL1 antigen [3]): 0.38 nM

B4: XENP37559 (bispecific antibody)
heavy: EVQLLESGGGLVQPGGSLRLSCAASGFTFSSYDMSWVRQAPGKRLEWVSTISSGGSFTHYPDSVKGRFTISRDNSKNTLYLQMNSLRAEDTAVYYCVRRSGDWYFDVWGAGTTVTVSSASTKGPSVFPLAPSSKSTSGGTAALGCLVKDYFPEPVTVSWNSGALTSGVHTFPAVLQSSGLYSLSSVVTVPSSSLGTQTYICNVNHKPSDTKVDKKVEPKSCDKTHTCPPCPAPPVAGPSVFLFPPKPKDTLMISRTPEVTCVVVDVKHEDPEVKFNWYVDGVEVHNAKTKPREEEYNSTYRVVSVLTVLHQDWLNGKEYKCKVSNKALPAPIEKTISKAKGQPREPQVYTLPPSREEMTKNQVSLTCDVSGFYPSDIAVEWESDGQPENNYKTTPPVLDSDGSFFLYSKLTVDKSRWEQGDVFSCSVMHEALHNHYTQKSLSLSPGK
scFv-Fc: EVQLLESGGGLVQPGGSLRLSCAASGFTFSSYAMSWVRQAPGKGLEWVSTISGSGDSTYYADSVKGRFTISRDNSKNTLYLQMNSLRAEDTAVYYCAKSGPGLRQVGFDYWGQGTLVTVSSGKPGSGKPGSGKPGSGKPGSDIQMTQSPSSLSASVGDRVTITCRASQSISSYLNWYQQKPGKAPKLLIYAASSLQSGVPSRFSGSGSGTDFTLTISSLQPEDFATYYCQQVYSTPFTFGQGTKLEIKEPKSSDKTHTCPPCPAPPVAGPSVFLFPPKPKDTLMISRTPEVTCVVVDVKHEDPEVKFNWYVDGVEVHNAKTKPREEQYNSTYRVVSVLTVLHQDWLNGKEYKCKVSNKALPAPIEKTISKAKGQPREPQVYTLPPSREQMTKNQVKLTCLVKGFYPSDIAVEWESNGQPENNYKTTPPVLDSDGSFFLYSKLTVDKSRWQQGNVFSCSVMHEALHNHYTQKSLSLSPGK
light: EIVLTQSPGTLSLSPGERATLSCRVSSSISSSNLHWYQQKPGQSPRPLIYGTSNLASGVPVRFSGSGSGTDYTLTISRLEPEDFAVYYCQQWSSYPLYTFGGGTKVEIKRTVAAPSVFIFPPSDEQLKSGTASVVCLLNNFYPREAKVQWKVDNALQSGNSQESVTEQDSKDSTYSLSSTLTLSKADYEKHKVYACEVTHQGLSSPVTKSFNRGEC
Kd (human PDL1 antigen [4]): 2.6 nM | Kd (cynomolgus PDL1 antigen [3]): 2.2 nM | Kd (human PDL1 antigen [5]): 2.6 nM

B5: XENP36233 (bispecific antibody)
heavy: EVQLLESGGGLVQPGGSLRLSCAASGFTFSSYDMSWVRQAPGKRLEWVSTISSGGSFTHYPDSVKGRFTISRDNSKNTLYLQMNSLRAEDTAVYYCVRRSGDWYFDVWGAGTTVTVSSASTKGPSVFPLAPSSKSTSGGTAALGCLVKDYFPEPVTVSWNSGALTSGVHTFPAVLQSSGLYSLSSVVTVPSSSLGTQTYICNVNHKPSDTKVDKKVEPKSCDKTHTCPPCPAPPVAGPSVFLFPPKPKDTLMISRTPEVTCVVVDVKHEDPEVKFNWYVDGVEVHNAKTKPREEEYNSTYRVVSVLTVLHQDWLNGKEYKCKVSNKALPAPIEKTISKAKGQPREPQVYTLPPSREEMTKNQVSLTCDVSGFYPSDIAVEWESDGQPENNYKTTPPVLDSDGSFFLYSKLTVDKSRWEQGDVFSCSVMHEALHNHYTQKSLSLSPGK
scFv-Fc: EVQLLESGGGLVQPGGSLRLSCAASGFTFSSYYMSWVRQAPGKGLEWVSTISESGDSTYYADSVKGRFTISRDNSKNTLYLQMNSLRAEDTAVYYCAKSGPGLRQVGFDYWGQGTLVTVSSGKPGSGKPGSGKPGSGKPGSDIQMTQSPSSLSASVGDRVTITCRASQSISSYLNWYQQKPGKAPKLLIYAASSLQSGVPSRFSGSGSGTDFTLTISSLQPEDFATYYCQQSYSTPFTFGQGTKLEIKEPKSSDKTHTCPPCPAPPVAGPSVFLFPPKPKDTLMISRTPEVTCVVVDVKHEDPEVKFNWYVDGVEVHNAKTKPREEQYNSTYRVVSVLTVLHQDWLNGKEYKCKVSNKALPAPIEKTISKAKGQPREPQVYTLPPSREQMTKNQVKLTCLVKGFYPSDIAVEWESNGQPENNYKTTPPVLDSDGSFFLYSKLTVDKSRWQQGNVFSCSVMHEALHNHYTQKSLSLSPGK
light: EIVLTQSPGTLSLSPGERATLSCRVSSSISSSNLHWYQQKPGQSPRPLIYGTSNLASGVPVRFSGSGSGTDYTLTISRLEPEDFAVYYCQQWSSYPLYTFGGGTKVEIKRTVAAPSVFIFPPSDEQLKSGTASVVCLLNNFYPREAKVQWKVDNALQSGNSQESVTEQDSKDSTYSLSSTLTLSKADYEKHKVYACEVTHQGLSSPVTKSFNRGEC
Kd (human CD28 [6]): 229 nM | Kd (human CD28 [7]): 229 nM

B6: αPDL1×αCD28 bsAb with PDL1 binding domain 2G4_H1.12_L1.14 and CD28 binding domain 1A7_H1.14_L1.71 (bispecific antibody)
heavy: EVQLLESGGGLVQPGGSLRLSCAASGFTFSVYDMSWVRQAPGKRLEWVSTISSGGSFTHYPDSVKGRFTISRDNSKNTLYLQMNSLRAEDTAVYYCVRRSLDWYFDVWGAGTTVTVSSASTKGPSVFPLAPSSKSTSGGTAALGCLVKDYFPEPVTVSWNSGALTSGVHTFPAVLQSSGLYSLSSVVTVPSSSLGTQTYICNVNHKPSDTKVDKKVEPKSCDKTHTCPPCPAPPVAGPSVFLFPPKPKDTLMISRTPEVTCVVVDVKHEDPEVKFNWYVDGVEVHNAKTKPREEEYNSTYRVVSVLTVLHQDWLNGKEYKCKVSNKALPAPIEKTISKAKGQPREPQVYTLPPSREEMTKNQVSLTCDVSGFYPSDIAVEWESDGQPENNYKTTPPVLDSDGSFFLYSKLTVDKSRWEQGDVFSCSVMHEALHNHYTQKSLSLSPGK
scFv-Fc: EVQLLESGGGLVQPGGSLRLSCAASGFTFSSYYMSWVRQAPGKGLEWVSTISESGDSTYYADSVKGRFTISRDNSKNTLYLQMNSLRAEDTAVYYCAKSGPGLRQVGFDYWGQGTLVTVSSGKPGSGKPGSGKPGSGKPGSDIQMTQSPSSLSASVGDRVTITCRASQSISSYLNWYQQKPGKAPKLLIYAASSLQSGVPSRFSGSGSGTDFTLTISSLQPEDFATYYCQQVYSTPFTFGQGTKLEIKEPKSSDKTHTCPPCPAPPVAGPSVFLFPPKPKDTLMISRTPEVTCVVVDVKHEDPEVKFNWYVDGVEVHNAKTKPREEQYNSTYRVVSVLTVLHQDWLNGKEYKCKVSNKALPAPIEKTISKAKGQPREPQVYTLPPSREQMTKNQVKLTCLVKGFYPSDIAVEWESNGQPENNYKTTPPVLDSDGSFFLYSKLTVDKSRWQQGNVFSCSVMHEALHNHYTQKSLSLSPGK
light: EIVLTQSPGTLSLSPGERATLSCRVSSSIQSSNLHWYQQKPGQSPRPLIYGTSNLASGVPVRFSGSGSGTDYTLTISRLEPEDFAVYYCQQWSSYPLYTFGGGTKVEIKRTVAAPSVFIFPPSDEQLKSGTASVVCLLNNFYPREAKVQWKVDNALQSGNSQESVTEQDSKDSTYSLSSTLTLSKADYEKHKVYACEVTHQGLSSPVTKSFNRGEC
Kd (cynomolgus PDL1 antigen [1]): 0.8 nM

B7: XENP37560 (bispecific antibody)
heavy: EVQLLESGGGLVQPGGSLRLSCAASGFTFSSYDMSWVRQAPGKRLEWVSTISSGGSFTHYPDSVKGRFTISRDNSKNTLYLQMNSLRAEDTAVYYCVRRSGDWYFDVWGAGTTVTVSSASTKGPSVFPLAPSSKSTSGGTAALGCLVKDYFPEPVTVSWNSGALTSGVHTFPAVLQSSGLYSLSSVVTVPSSSLGTQTYICNVNHKPSDTKVDKKVEPKSCDKTHTCPPCPAPPVAGPSVFLFPPKPKDTLMISRTPEVTCVVVDVKHEDPEVKFNWYVDGVEVHNAKTKPREEEYNSTYRVVSVLTVLHQDWLNGKEYKCKVSNKALPAPIEKTISKAKGQPREPQVYTLPPSREEMTKNQVSLTCDVSGFYPSDIAVEWESDGQPENNYKTTPPVLDSDGSFFLYSKLTVDKSRWEQGDVFSCSVMHEALHNHYTQKSLSLSPGK
scFv-Fc: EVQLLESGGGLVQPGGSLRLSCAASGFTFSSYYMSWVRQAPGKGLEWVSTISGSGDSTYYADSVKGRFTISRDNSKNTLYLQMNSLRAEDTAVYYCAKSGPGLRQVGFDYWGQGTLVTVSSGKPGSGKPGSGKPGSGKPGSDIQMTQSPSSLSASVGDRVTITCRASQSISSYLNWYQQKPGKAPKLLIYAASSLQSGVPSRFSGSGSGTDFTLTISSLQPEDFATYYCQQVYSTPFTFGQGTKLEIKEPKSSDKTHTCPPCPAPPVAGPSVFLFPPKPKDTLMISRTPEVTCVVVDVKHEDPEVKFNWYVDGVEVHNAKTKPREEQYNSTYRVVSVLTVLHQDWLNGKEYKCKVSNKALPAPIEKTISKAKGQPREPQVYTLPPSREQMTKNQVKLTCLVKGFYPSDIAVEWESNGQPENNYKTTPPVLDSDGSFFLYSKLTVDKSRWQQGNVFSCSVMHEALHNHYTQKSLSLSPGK
light: EIVLTQSPGTLSLSPGERATLSCRVSSSISSSNLHWYQQKPGQSPRPLIYGTSNLASGVPVRFSGSGSGTDYTLTISRLEPEDFAVYYCQQWSSYPLYTFGGGTKVEIKRTVAAPSVFIFPPSDEQLKSGTASVVCLLNNFYPREAKVQWKVDNALQSGNSQESVTEQDSKDSTYSLSSTLTLSKADYEKHKVYACEVTHQGLSSPVTKSFNRGEC
Kd (human CD28 [6]): 91.6 nM | Kd (human CD28 [7]): 91.6 nM

B8: XENP28428 (antibody, V domains shown)
VH: EVQLLESGGGLVQPGGSLRLSCAASGFTFSSYAMSWVRQAPGKGLEWVSTISGSGDSTYYADSVKGRFTISRDNSKNTLYLQMNSLRAEDTAVYYCAKSGPGLRQVGFDYWGQGTLVTVSS
VL: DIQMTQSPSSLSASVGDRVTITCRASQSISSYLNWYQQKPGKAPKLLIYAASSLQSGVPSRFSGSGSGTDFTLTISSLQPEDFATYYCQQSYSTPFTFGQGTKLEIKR
Kd (human CD28 [8]): 14.5 nM
